Test results reported in the DeepSol protein solubility set.

Test: soluble on expression in E. coli; label from the status in PepcDB or PDB records

Soluble on expression in E. coli, not soluble:
GFIDSHVHLFGGSVELDCLSLYGVKGLDAMRAAIQPYAQANPDDALVFCVMADYDILGTGHTLTRHDLDSILADRPLAMFAPDHHTVWANTAALEATGLLQGGEVDAGSLIVLGEDGLANGELLEPGAYGPILGLTRHGGREMLGLTTGKDPEPPATPDQRARDKDVIARGLAHCAAQGITGLHLMDGNRYQLELLTELEAEGRLLCRCEVPFHMKGTDPVERMTAEAPAMRAAYRGDKVRCNHLKMFIDGVIESGTALMLRPYPGELGANDNTGDEVFTQEHFTACCVEADRLGFQIAVHAIGDAGVRRTIDAFEAARRANGTRDSRHRIEHIEVIHPDDIPRLAELDIVASLQPGHAPRGHVFPPGAVGQYLHPDQIVGAYAWQTIRETGARVVFSTDWPVIPVDVMPSLRAAIAPLDLGPDWPDQSQSLMDTLASYTRDNAWVEFNEDSKGRLKVGMAADIAVLSHDLTALAPDDITQAAAMVTIMDGAVTY
MGSDKIHHHHHHMTTNEIEIRLMQDVDAAGVVELYKTVYGNEYPVKTVYDPAAVIEQQNNGEMYRIIARSGDKVVGQTALYRSTSPNPELYEEGQGIVLPLYRNQGILEQCLAYGHKVAYPQLNIKQEWGEAVCNHTFTQKAGARLGAFETGIELDLMPASSYVKEQSSQGRVAALVMFLIFQAAPPQLLYLPETYADSLHYLYSAYDFKHEFVSSKSLLPEQATRGQVEIYADAAVARFTLLETGKDLEDYLLEQEKLAQAQGCSVFQAYLKLANPAVGHAVNILREHQYFLGGILPRWFATDGLLMQKLLHEPNLEGINLYSERSHKILNMIIDDRNTVIK
MAHHHHHHMNNSSAVATGDNPQLQKPMIYKNRARSIVHRSVRNGSENQLTEQANGTSIRDKIRRLFSSKHDQTIRDMQKTKLTKNKSIQEQEPSERNVDGFLSTDHQSVEWQPVYRETCKIKLPVEEGATKIAMPEEVLDDWVHSQHKISQQLGRRKGGEFVQDNQSLGDHDQGDDLLELGGDCLLGKNASRKSCNLKSTEDQYSKFKYYYNYYLVDEYLESLAASPNKELDATGLDEHGQLYDNVSLNARPIIVSKQRLESGVPYDPSKLLQ
MLEDDFGREVSGVRVSLTDRCNFDCVYCHNEGLGDTRGPMEAQDDELTADTIVAFLEVAAEFGVDSVKFTGGEPMLREDLEEIVRRAPDEMEVSMTTNGTFLPGRAPDLVDAGLERVNVSQDALDSEAFAELTQSGAYDRVLEGVEAALDAGLEPVKLNMVVFEPTAGYVPKMVDHVAENPGLQLQLIEYMPELAGHPEWAIDIDRVHDWLEDRADKVEHREMHDRKRYWMHSGEAAVEGDSASTSLAASDGGIRTEPVNNHNSGMVEIVDPVGNENFCANCHRVRLTHDGYLKGCLNRNDDLRDIGTTKESMRAAFRETVDTRVPYYGEYMIETEDGEWEINEEYIDTDGDRAPYEYSE
SLIENVDAQADSSWPHRGQIEVRNLTVKYTEAGHAVLKNLSFSAEGRQRVGILGRTGSGKSSLFNALLKLVYTDGEISIDGVNWNKMPLEKWRKAFGVVPQKVFIFTGPLRMNLDPYGCHSDEELWRVAEEVGLKTVIEQFPDKLDFQLEYGGYVLSNGHKQLICLARSILSGARILLLDEPSAHLDPVTIKVLKKTLRQSFSTCTILLSEHKVEPLLECDSFLMMDKGQVKTYDSIQKLLNETSDLKQAISPAE
MTNFATTDDVILLWRQLSVDEIKRAEALLETVSDTLRLEASKVGKNLDEMILETPYFATVLKSVTVDIVARTLMTATQGEPMSQESQSALGYTWSGTYLVPGGGLFIKDSELKRLGLKKQRYGGIELYGEIERNNSYFSRQDD
MGSDKIHHHHHHMASYSLVESNSFGSENWCLKLQPSYKHGLLTGLSNGEIRLLDWSTGKSVQKIKASETAINDMKVIGSDFSAGHLVSSASIDAVKVFDIRTNDRIAQIQNEANSPFISLDSRHGLLACGTELQGIDAAVYIYDIRKWDTPLRSLIDSHHDDVTCIKFHPSDVNILLSGSTDGYTNIYDLKQDEEEDALHQVINYASIHSCGWLSPKRIFTLSHMETFAIHELNDKSDELKEPQPLDFGDVREIWNCDYVVDIYPGLIATGKTQENCGELCLLPFKDEKVDTENGIVIPHAHGDEVVRDIFIPAQHSNMLYSCGEDGCVKIWENKQGPLDIPENFWDYSKKMNVLGDDDREGSINLDEPLIIQKESVSTRPRKEKHKKAKKHSMKSRFKPY

Soluble on expression in E. coli, soluble:
MSLSDRLTAFKELIQAGGAKRPADLIIKNGQLVNVMTAEIYPAEVAIYQGKIVAVDPDVSAYQGTETRVIDAKQQYIVPGLIDGHIHVECSKLSMTSFAEAVVPHGTTSIISGLDEYISVIGVDGLSEIFKEVDQLPMRVFWGAPFKTPYTIPASTIADNIDSTVQAQLQKRSDVYGVWETVREAVETLDEDTLKTLLNAQDNHVPVWGCAPMATGTKLNEYLMSGVRVDHESYDHQELLEKVRKGINVVIRESSVTHFLAENIRAITETNGQIARHVSFCTDDVNAMDIVNKGHLDHLVRLAIAAGVAPMTAIQMATINSAEAYRIDDQVGLIAPGRNADILLVSDLEAFEIKRVLAKGQPVATDGHINQSIERPVRPASLANTIIREAVQASDFEYHVAADASQVTVQTIASEGPFVRHAKTKTLTVEDGIVQIDPAKDVALISVLERFGKNGNQSLGFTSGWTLKKGAMASTAAPDDNNIIVMGVNPDDMALAVNTLIERDGGQVVVADGQILSFLPLPIAGIVSDVTPAELAVQEEGILKASQAIGSEVVDPMFYMTFLPITAIPDLAITDLGNVDCNELRLFDPILTIQEGHHHHHH
PVYVDFDVPADLEDDALEALEVARDTGAVKKGTNETTKSIERGSAELVFVAEDVQPEEIVMHIPELADEKGVPFIFVEQQDDLGHAAGLEVGSAAAAVTDAGAAATVLEEIADKVEELR
MSLAEINKNEVDIVIGALNADLTQFLTSWRPFFSGFHLIVVKDPELKEELNIPEGFDVDVYSKTDMEKVVGASNSTMFSGYSCRYFGYLVSKKKYIVSIDDDCVPAKDPKGFLVDAVTQHVINLENPATPLFFNTLYDPYCEGADFVRGYPFSLRSGVPCAASCGLWLNLADLDAPTQALKTEKRNTAYVDAVMTVPAKAMLPISGINIAFNRELVGPALVPALRLAGEGKVRWETLEDVWCGMCLKHISDHLGYGVKTGLPYVWRNERGDAVESLRKKWEGMKLMEKSVPFFDSLKLPETALKVEDCVIELAKAVKEQLGSDDPAFTQAADAMVKWVQLWNSVNSSA
MSLANSKVYAIPTTCNSGIFVGRAENLDAIDIMKDPNYTGKVSIVGFDVANCSDNNSDDNHKNHNETAIGNGPTPKWHNSNYTSDFLNVAQQGKDTMISATLPNPVPSQEIGSVGQIAYGSQISDADFKELASVDIKNINQSSPYFVRNYGQMVSKLGDIIEKYHTELMDSNGNATIYLRPFHEMNSPWLWWGFKNQDDFKNLWIHLHNYLVNDRKFTWLKFCFAASAGDPSLDPAHVKGANSYYPGNNYVDTVALDGYSDDPSNDSGIKKQYAELTATGKPFGFAELGAKVDGDFVNVPNERTQQNVETRPFNYQKWSDAIQKYYSNAKYCIVFGGAYDPRNNLHGTSLFSNEGHHHHHH
MNMAERAEATKSWSCEPLSGKTLEEIVQNAENAADLVAYIRKPEVDLDFRLKFIAEHEEFFNEQLSDRNSRIRTCHNLSDKGIRGDTVFVFVPGLAGNLEQFEPLLELVDSDQKAFLTLDLPGFGHSSEWSDYPMLKVVELIFVLVCDVLRKWSTAVPNNDNVNPFNGHKIVLVGHSMGCFLACHLYEQHMADTKAVQTLVLLTPPKAHIEQLSKDKHIIQWALYGVFKLPWLFDVYRNKFDQVKGLQSSGIKQYFYQQGDDVKLKYRKFWQFKNNISNKSRTIIGYLLGWETVDWVKFNGVLTQTDMKQKIIIFGAEKDPIAPIENLEFYKQTINKECLRKVIILPDCSHNLCFDRPELVCENFQREVIDNSKL
GMQIESFKSLLPKYKCIFFDAFGVLKTYNGLLPGIENTFDYLKAQGQDYYIVTNDASRSPEQLADSYHKLGLFSITADKIISSGMITKEYIDLKVDGGIVAYLGTANSANYLVSDGIKMLPVSAIDDSNIGEVNALVLLDDEGFNWFHDLNKTVNLLRKRTIPAIVANTDNTYPLTKTDVAIAIGGVATMIESILGRRFIRFGKPDSQMFMFAYDMLRQKMEISKREILMVGDTLHTDILGGNKFGLDTALVLTGNTRIDDAETKIKSTGIVPTHICESAVIEL
SFSSLPLTGENPGAWALVRDNSAKGITAGSGSQQTTYDPTRTEAALTASTTFALRRYDLAGRALYDLDFSKLNPQTPTRDQTGQITFNPFGGFGLSGAAPQQWNEVKNKVPVEVAQDPSNPYRFAVLLVPRSVVYYEQLQRGLGLPQQRTESGQNTSTTGAMFGLKVKNAEADTAKSNEKLQGAEATGSSTTSGSGQSTQRGGSSGDTKVKALKIEVKKKSDSEDNGQLQLEKNDLANAPIKRSEESGQSVQLKADDFGTALSSSGSGGNSNPGSPTPWRPW
MDIKVHFHDFSHVRIDCEESTFHELRDFFSFEADGYRFNPRFRYGNWDGRIRLLDYNRLLPFGLVGQIKKFCDNFGYKAWIDPQINEKEELSRKDFDEWLSKLEIYSGNKRIEPHWYQKDAVFEGLVNRRRILNLPTSAGRSLIQALLARYYLENYEGKILIIVPTTALTTQMADDFVDYRLFSHAMIKKIGGGASKDDKYKNDAPVVVGTWQTVVKQPKEWFSQFGMMMNDECHLATGKSISSIISGLNNCMFKFGLSGSLRDGKANIMQYVGMFGEIFKPVTTSKLMEDGQVTELKINSIFLRYPDEFTTKLKGKTYQEEIKIITGLSKRNKWIAKLAIKLAQKDENAFVMFKHVSHGKAIFDLIKNEYDKVYYVSGEVDTETRNIMKTLAENGKGIIIVASYGVFSTGISVKNLHHVVLAHGVKSKIIVLQTIGRVLRKHGSKTIATVWDLIDDAGVKPKSANTKKKYVHLNYLLKHGIDRIQRYADEKFNYVMKTVNLLEHHHHHH
MAHHHHHHMRYFRVLHNFDAQDGVELTVKKGETVFTAESEVREGWIKVEVLHDPRRRGFVPFNYLRETTESLAREQEEGSRGIGRESGGMSTASMTLQPSAVPRETSVTFTSGALDYGDRLQNMYGVGASAPSPVSQRSRSAEQGMKRVNENSMATATKGAVMEPLLPSQKVPSSPPSGADPVPERSLLNNPSAIVEAFMKNELHFKQLIRQRQDALAQMRTTVEEAMSELAACKEKNFTLARKLRELDQSVEKERGRWKERIMEEKAYISRSMSSE
TSITPSSQDICRICHCEGDDESPLITPCHCTGSLHFVHQACLQQWIKSSDTRCCELCKYEFIMETKL
MKTIAIRDVTGIMEPLPGFSVVRTDGSDGQRSIKLNGYKTTNNQYGYQFVKNENTVVYDDEEYIIKTHRERTYRKGVGVEATAIHRIFDDLRNNYIYDEKTGTLRLDAMLSFALEGSGYTFEIDTTDLPASVRVENFGWNNSLALFRDILEKFGAEFDYKGKKIYVAKKFGIQRDEPFLRYRFNVKDPEKEIDTSSFATYIRGYGKKDDKGNYLFAEYTSPLAKIYGIKHADPVKDERYTDKDSLLAAMKKQLNDNIDISLTFTAIELESMGLRDIKKGDYVWCVIEPFDLNVQLRAVSREDYSDETKSPTFTFGTITKKASDIIASFNTTKKAVDKVIDTSTGKIKDSAIDTTGLTTKSEFQSHVDNKIVHITAEERAAWNAASNSIGDLTFITWSTPTLKNGWIQYTANTESYPIQYGKDAIGTVNIRGAVSSGVVGSSTPVFTLPAGFRPPFPHLFIGVSSVATDGTPQYFRGIIKTNGDVCIENISNKDTPNQFIGIYTQFKAI
